Assay results: US11649275B2, “Dual agonist fusion proteins” (Duke University, priority 2018, dated 2023)

Legend:
db/db mice [1] = test: Chronic dosing study, weekly s.c. for four weeks (GTT, % HbA1c, body weight, food intake); format: in vivo
Method: (§1) Animals: In vivo studies were conducted in accordance with the AAALAC-accredited Duke Institutional Animal Care and Use Committee. 5-week-old B6.BKS(D)-Lepr^db/J (“db/db”) male mice were purchased from Jackson Laboratory (Bar Harbor, Me.) and maintained on a 12 h/12 h light/dark cycle with ad libitum access to food (LabDiet 5053) and water. Animals were group-housed and allowed 1-week acclimation before stratification into control and treatment groups based on baseline ambient blood glucose levels and body weights.
(§2) ELP fusion treatments: ELP fusion proteins were administered at 150-200 μM concentration via injection into the subcutaneous (s.c.) space on the hind flank. Animals received either a single s.c. injection for short-term studies or weekly s.c. injections for chronic studies. The “1:1 mixture” treatment group received a single injection containing an equimolar mixture of GLP1-ELP and ELP-FGF21, with the indicated dose referring to the dose of each respective fusion in the mixture. Vehicle control refers to PBS.
Food Intake: For food intake studies, animals were group-housed 4 per cage, and food pellets were weighed every 1-2 days. Total cage food intake was calculated for each time increment, averaged per animal, and summed over the course of the study to yield a cumulative food intake per mouse. N=8 treatment groups were divided into 2 cages, allowing for an n=2 food intake standard error calculation.

[2] = Pharmacokinetic study of radiolabeled ELP fusion depots after s.c. injection; format: in vivo, mice; conditions: component of 1:1 mixed depot, 1000 nmol/kg each
Method: Pharmacokinetic studies: Tyrosine residues on GLP1-ELP, ELP-FGF21, or GLP1-ELP-FGF21 fusion proteins were reacted with Na^125I radionuclide (Perkin Elmer) using Pierce Pre-Coated Iodination Tubes (Thermo Fisher Scientific) and the indirect method for iodination. Radiolabeled protein was purified from unreacted radionuclide with Zeba Spin Desalting Columns (Thermo Fisher Scientific). Activities of radiolabeled constructs were measured with an Atomlab 400 Dose Calibrator (Biodex, Shirley, N.Y.) and correlated to protein concentration. Mice received a single s.c. injection of radiolabeled fusion, and 10 μL blood samples were collected at frequent time points from the tail vein and stored at room temperature until radioactivity quantification. Sample counts were measured at the end of the study on a Wallac Wizard 1480 Automatic Gamma Counter (Perkin Elmer). An activity vs. count standard curve was used to convert sample counts to activities, and subsequently to moles of drug.
Pharmacokinetic analysis: The maximum serum concentration (Cmax) was recorded as observed, as well as time to reach Cmax (tmax). […] Absorption half-life (t1/2, abs) was estimated from the slope of the linear regression curve. When a drug administered at an extravascular site yields a terminal half-life greater than that resulting from an i.v. bolus, the terminal half-life reflects the absorption half-life.

[3] = target: T1, murine β-Klotho and FGF receptor 1 (Mus musculus, UniProt P16092+Q99N32); test: ERK phosphorylation assay (FGF21 receptor agonism, HEK293 cells); format: cell-based; conditions: compared to native FGF21
T1 construct: expressed in transfected cells; host or cells: HEK293
Method: ERK phosphorylation assay: For quantitative evaluation of FGF21 in vitro activity, a HEK293 cell line was previously generated that stably expresses murine β-Klotho and FGF receptor 1 and thereby enables FGF21-mediated ERK1/2 phosphorylation. Cells were seeded at 5×10^4 cells/cm^2 and adhered overnight. After serum starvation for 6 h, cells were treated with serial dilutions of FGF21-containing fusion proteins or native mouse FGF21 (ProSpec-Tany, East Brunswick, N.J.) for 5 min. Cells were lysed and assessed for phospho-ERK1/2 and total ERK1/2 content using the AlphaLISA Surefire Ultra Assay Kits (PerkinElmer) and the EnSpire Alpha Plate Reader (PerkinElmer). Phospho-ERK1/2 was normalized to total ERK1/2 and fit to a three-parameter dose-response curve to determine EC50s using GraphPad Prism 8 software (La Jolla, Calif.).

db/db mice [4] = test: Short-term co-treatment pilot study, 48 h after single s.c. injection; format: in vivo; conditions: 48 h post-injection, 1000 nmol/kg s.c.
Method: as §1, §2
Ambient blood glucose measurements: Blood glucose levels were measured from a tail vein puncture with an AlphaTRAK 2 Blood Glucose Meter (Zoetis, Parsippany-Troy Hills, N.J.) every 24 h, 1-2 h following onset of the light cycle. […] Areas under the curve (AUCs) were calculated with GraphPad Prism 8 software using the trapezoidal rule and setting a Y=0 baseline. […]

T1 sequence (Q99N32 whole entry): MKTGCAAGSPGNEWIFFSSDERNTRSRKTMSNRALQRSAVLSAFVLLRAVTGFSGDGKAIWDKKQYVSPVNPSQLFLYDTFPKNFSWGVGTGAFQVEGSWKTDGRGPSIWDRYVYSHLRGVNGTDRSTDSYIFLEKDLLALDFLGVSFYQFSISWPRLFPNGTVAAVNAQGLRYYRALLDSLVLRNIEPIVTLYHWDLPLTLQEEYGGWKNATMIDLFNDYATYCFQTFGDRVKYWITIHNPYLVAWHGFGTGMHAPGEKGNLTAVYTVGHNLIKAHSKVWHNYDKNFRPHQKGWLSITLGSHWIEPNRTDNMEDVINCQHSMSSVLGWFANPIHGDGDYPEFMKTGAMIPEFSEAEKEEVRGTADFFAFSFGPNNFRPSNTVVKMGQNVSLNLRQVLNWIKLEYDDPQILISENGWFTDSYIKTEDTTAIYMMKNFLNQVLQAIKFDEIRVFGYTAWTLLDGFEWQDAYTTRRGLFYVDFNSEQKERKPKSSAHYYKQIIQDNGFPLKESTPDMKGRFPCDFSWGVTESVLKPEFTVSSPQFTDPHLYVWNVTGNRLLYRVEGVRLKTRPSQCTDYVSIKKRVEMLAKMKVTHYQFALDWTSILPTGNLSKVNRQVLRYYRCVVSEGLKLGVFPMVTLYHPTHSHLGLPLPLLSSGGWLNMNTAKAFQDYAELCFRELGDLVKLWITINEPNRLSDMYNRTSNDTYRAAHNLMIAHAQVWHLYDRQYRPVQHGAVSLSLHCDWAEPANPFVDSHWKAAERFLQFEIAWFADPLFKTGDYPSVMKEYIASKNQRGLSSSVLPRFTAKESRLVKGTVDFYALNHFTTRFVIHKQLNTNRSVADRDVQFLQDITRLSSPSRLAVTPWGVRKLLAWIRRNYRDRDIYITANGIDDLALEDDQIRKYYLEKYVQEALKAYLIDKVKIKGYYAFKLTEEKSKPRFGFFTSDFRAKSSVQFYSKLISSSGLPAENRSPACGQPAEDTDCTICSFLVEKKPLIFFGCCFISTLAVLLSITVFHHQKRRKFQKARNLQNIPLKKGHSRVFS
T1 sequence (P16092 22-822): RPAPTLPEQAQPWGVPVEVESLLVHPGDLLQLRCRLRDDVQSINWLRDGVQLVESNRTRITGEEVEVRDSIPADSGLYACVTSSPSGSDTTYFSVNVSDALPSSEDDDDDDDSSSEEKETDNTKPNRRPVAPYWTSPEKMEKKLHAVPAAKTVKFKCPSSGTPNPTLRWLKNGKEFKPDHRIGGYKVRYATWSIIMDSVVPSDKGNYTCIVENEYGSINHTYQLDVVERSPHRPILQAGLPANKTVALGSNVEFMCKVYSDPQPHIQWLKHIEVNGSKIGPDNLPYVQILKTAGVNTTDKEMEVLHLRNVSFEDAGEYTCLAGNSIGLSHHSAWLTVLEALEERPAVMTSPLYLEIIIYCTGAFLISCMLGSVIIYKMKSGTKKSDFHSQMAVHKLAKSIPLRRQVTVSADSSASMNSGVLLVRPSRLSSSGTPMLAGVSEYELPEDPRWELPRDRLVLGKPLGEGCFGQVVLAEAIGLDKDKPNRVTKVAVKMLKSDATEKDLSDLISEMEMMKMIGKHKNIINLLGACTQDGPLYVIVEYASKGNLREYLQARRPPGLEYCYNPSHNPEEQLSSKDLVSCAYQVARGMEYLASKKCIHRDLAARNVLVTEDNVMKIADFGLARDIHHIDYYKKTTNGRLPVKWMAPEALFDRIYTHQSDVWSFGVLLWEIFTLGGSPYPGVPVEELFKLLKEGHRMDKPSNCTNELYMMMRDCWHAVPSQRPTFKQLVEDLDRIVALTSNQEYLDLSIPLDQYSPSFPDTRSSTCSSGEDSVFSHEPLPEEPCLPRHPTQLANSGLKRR

increase in FGF21 receptor EC50 on fusion of FGF21 to an ELP [3]: approximately twenty-fold
B1: ELP-FGF21: Single agonist control: ELP (120 repeats, 4:1 Val:Ala) fused to mutated murine FGF21; SEQ ID NO:14 (protein)
chain: GVGVPGVGVPGAGVPGVGVPGVGVPGVGVPGVGVPGAGVPGVGVPGVGVPGVGVPGVGVPGAGVPGVGVPGVGVPGVGVPGVGVPGAGVPGVGVPGVGVPGVGVPGVGVPGAGVPGVGVPGVGVPGVGVPGVGVPGAGVPGVGVPGVGVPGVGVPGVGVPGAGVPGVGVPGVGVPGVGVPGVGVPGAGVPGVGVPGVGVPGVGVPGVGVPGAGVPGVGVPGVGVPGVGVPGVGVPGAGVPGVGVPGVGVPGVGVPGVGVPGAGVPGVGVPGVGVPGVGVPGVGVPGAGVPGVGVPGVGVPGVGVPGVGVPGAGVPGVGVPGVGVPGVGVPGVGVPGAGVPGVGVPGVGVPGVGVPGVGVPGAGVPGVGVPGVGVPGVGVPGVGVPGAGVPGVGVPGVGVPGVGVPGVGVPGAGVPGVGVPGVGVPGVGVPGVGVPGAGVPGVGVPGVGVPGVGVPGVGVPGAGVPGVGVPGVGVPGVGVPGVGVPGAGVPGVGVPGVGVPGVGVPGVGVPGAGVPGVGVPGVGVPGVGVPGVGVPGAGVPGVGVPGVGVPGVGVPGVGVPGAGVPGVGVPGVGVPGVGVPGVGVPGAGVPGVGVPGVGVPGAYPIPDSSPLLQFGGQVRQRYLYTDDDQDTEAHLEIREDGTVVGAAHRSPESLLELKALKPGVIQILGVKASRFLCQQPDGALYGSPHFDPEACSFRERLLEDGYNVYQSEAHGLPLRLPQKDSPNQDATSWGPVRFLPMPGLLHEPQDQAGFLPPEPPDVGSSDPLSMVEGSQGRSPSYASG
fasting blood glucose levels (db/db mice [1]; 5 h fast, 3 days after the first dosing cycle, 1000 nmol/kg s.c.): 237 ± 21 mg/dL
% HbA1c elevation relative to control (db/db mice [1]; four-week study): significantly reduced % HbA1c elevation relative to control
effect on body weight / weight gain compared to vehicle (db/db mice [1]; four-week treatment period): did not induce a significant effect on body weight
GTT AUC (db/db mice [1]; i.p. glucose tolerance test 3 days after the first dosing cycle): significantly decreased GTT AUC compared to vehicle
fasting plasma insulin (db/db mice [1]; prior to glucose challenge, 3 days after the first dosing cycle): equivalent levels of fasting plasma insulin
day by which plasma levels dropped below 100 nM [2]: ≤ 4 days
body weight, % change from pre-injection weight (db/db mice [4]): −0.9±0.3%
